Assay results as given in PMC9758055.

How the values were obtained:
[1] = target: SNAPC1;SNAPC2;SNAPC3;SNAPC4 full length;SNAPC5 (Homo sapiens;Homo sapiens;Homo …, UniProt Q16533;Q13487;Q92966;Q5SXM2;O75971 1-368;1-334;1-411;1-1469;1-98, ||||); assay: EMSA; SNAPc-FL alone; EMSA: 250 mM NaCl, 50 mM HEPES pH 7.9, 20% glycerol, 1 mM TCEP, room temperature 15 min; 20 pM SNAPc, 5 pM DNA, 25 pM TBP/TFIIB (units as printed). Cryo-EM: ass; settings: protein: recombinant;recombinant;recombinant;recombinant;recombinant; tags: ;;;N-terminal StrepTwin, C-terminal His;; copies: 1;1;1;1;1; blunt
[2] = target: SNAPC1;SNAPC3;SNAPC4 1-516;SNAPC5;TBP;TFIIB (Homo sapiens;Homo sapiens;Homo …, UniProt Q16533;Q92966;Q5SXM2;O75971;P20226;Q00403 1-368;1-411;1-516;1-98;1-339;1-316, |||||); assay: EMSA; SNAPc-core with TBP and TFIIB; EMSA: 250 mM NaCl, 50 mM HEPES pH 7.9, 20% glycerol, 1 mM TCEP, room temperature 15 min; 20 pM SNAPc, 5 pM DNA, 25 pM TBP/TFIIB (units as printed). Cryo-EM: ass; settings: protein: recombinant;recombinant;recombinant;recombinant;recombinant;recombinant; tags: ;;;;;; copies: 1;1;1;1;1;1; blunt
[3] = target: SNAPC1;SNAPC3;SNAPC4 1-516;SNAPC5 (Homo sapiens;Homo sapiens;Homo …, UniProt Q16533;Q92966;Q5SXM2;O75971 1-368;1-411;1-516;1-98, |||); assay: EMSA; SNAPc-core alone; EMSA: 250 mM NaCl, 50 mM HEPES pH 7.9, 20% glycerol, 1 mM TCEP, room temperature 15 min; 20 pM SNAPc, 5 pM DNA, 25 pM TBP/TFIIB (units as printed). Cryo-EM: ass; settings: protein: recombinant;recombinant;recombinant;recombinant; tags: ;;;; copies: 1;1;1;1; blunt
[4] = target: SNAPC1;SNAPC2;SNAPC3;SNAPC4 full length;SNAPC5;TBP;TFIIB (Homo sapiens;Homo sapiens;Homo …, UniProt Q16533;Q13487;Q92966;Q5SXM2;O75971;P20226;Q00403 …, ||||||); assay: EMSA; SNAPc-FL with TBP and TFIIB; EMSA: 250 mM NaCl, 50 mM HEPES pH 7.9, 20% glycerol, 1 mM TCEP, room temperature 15 min; 20 pM SNAPc, 5 pM DNA, 25 pM TBP/TFIIB (units as printed). Cryo-EM: ass; settings: protein: recombinant;recombinant;recombinant;recombinant;recombinant;recombinant;recombinant; tags: ;;;N-terminal StrepTwin, C-terminal His;;;; copies: 1;1;1;1;1;1;1; blunt
[5] = target: SNAPC1;SNAPC3;SNAPC4 1-516;SNAPC5;TBP;TFIIB;TFIIA (Homo sapiens;Homo sapiens;Homo …, UniProt Q16533;Q92966;Q5SXM2;O75971;P20226;Q00403;P52655;P52657 …, ||||||); assay: cryo-EM; local map of SNAPc-containing upstream complex; GraFix; EMSA: 250 mM NaCl, 50 mM HEPES pH 7.9, 20% glycerol, 1 mM TCEP, room temperature 15 min; 20 pM SNAPc, 5 pM DNA, 25 pM TBP/TFIIB (units as printed). Cryo-EM: ass; settings: protein: recombinant;recombinant;recombinant;recombinant;recombinant;recombinant;recombinant; tags: ;;;;;;; copies: 1;1;1;1;1;1;1;1; blunt
[6] = target: SNAPC1;SNAPC3;SNAPC4 1-516;SNAPC5;TBP;TFIIB;TFIIA;TFIIF;RNA polymerase II (Homo sapiens;Homo sapiens;Homo …, UniProt Q16533;Q92966;Q5SXM2;O75971;P20226;Q00403;P52655;P52657;P35269;P13984;A0A8D1DPV6 …, ||||||||); assay: cryo-EM; closed complex; GraFix; TFIIE added in assembly; Zn2+ in SNAPC3; EMSA: 250 mM NaCl, 50 mM HEPES pH 7.9, 20% glycerol, 1 mM TCEP, room temperature 15 min; 20 pM SNAPc, 5 pM DNA, 25 pM TBP/TFIIB (units as printed). Cryo-EM: ass; settings: tags: ;;;;;;;;; copies: 1;1;1;1;1;1;1;1;1;1;1;1;1;1;1;1;1;1;1;1;1;1; blunt

Measured: binding result

B1: U1 promoter EMSA fragment (76 bp) (dsDNA)
DNA 1: GAAACGTTGTGCCTCTGCCCCGACACAGCCTCATACGCCTCACTCTTTACACACACGGTCACTTGCCCCGCGCACT
DNA 2: AGTGCGCGGGGCAAGTGACCGTGTGTGTAAAGAGTGAGGCGTATGAGGCTGTGTCGGGGCAGAGGCACAACGTTTC
binds: [1] | [2] | [3] | [4]

B2: U5 promoter EMSA fragment (75 bp) (dsDNA)
DNA 1: ACCAGTTACTTCTGTAACTCAATTTTCGGGTAACTGCAATTCCTAGTACACTGATGGTGTCTACTAATCCCAAGG
DNA 2: CCTTGGGATTAGTAGACACCATCAGTGTACTAGGAATTGCAGTTACCCGAAAATTGAGTTACAGAAGTAACTGGT
binds: [1] | [2] | [3] | [4]

B3: engineered U5 promoter cryo-EM scaffold (96 bp) (dsDNA)
DNA 1: AGTAGACACCATCAGTGTACTAGGACCCGAAAATTGAGTTACAGAAGTAACTGGTATACTCTGGTTTCTCTTCAGATCGCATAAAACCTGGCAGGG
DNA 2: CCCTGCCAGGTTTTATGCGATCTGAAGAGAAACCAGAGTATACCAGTTACTTCTGTAACTCAATTTTCGGGTCCTAGTACACTGATGGTGTCTACT
binds: [5] | [6]
